Assay results reported in paper PMC5703498, “Plant-type phytoene desaturase: Functional evaluation of structural implications” (PLoS ONE, 2017).
Substitutions are numbered along the chain they refer to.

B1: Oryza sativa phytoene desaturase with C-terminal His6 (OsPDS-His6), wild type (enzyme, UniProt A2XDA1 88-578, looked up)
chain: AGQLSSFFRNSEQPTKPLQVVIAGAGLAGLSTAKYLADAGHKPILLEARDVLGGKIAAWKDEDGDWYETGLHIFFGAYPNIQNLFGELGINDRLQWKEHSMIFAMPNKPGEFSRFDFPETLPAPLNGIWAILRNNEMLTWPEKVKFALGLLPAMVGGQAYVEAQDGFTVSEWMKKQGVPDRVNDEVFIAMSKALNFINPDELSMQCILIALNRFLQEKHGSKMAFLDGNPPERLCMPIVDHVRSLGGEVRLNSRIQKIELNPDGTVKHFALTDGTQITGDAYVFATPVDILKLLVPQEWKEISYFKKLEKLVGVPVINVHIWFDRKLKNTYDHLLFSRSSLLSVYADMSVTCKEYYDPNRSMLELVFAPAEEWVGRSDTEIIEATMQELAKLFPDEIAADQSKAKILKYHVVKTPRSVYKTIPDCEPCRPLQRSPIEGFYLAGDYTKQKYLASMEGAVLSGKLCAQSVVEDYKMLSRRSLKSLQSEVPVAS
notes: residue numbers count on the immature protein A2XDA1.2 including the transit peptide; the GPC done here is described only as 'homooligomer'; Cloned through an NdeI site, so a start methionine probably precedes residue 88 (surmised); also called rice PDS-His6; wild type PDS; not shown: His6, C-terminal, kept
B2: Oryza sativa phytoene desaturase Arg300Ser mutant (Arg300Ser PDS) (enzyme, UniProt A2XDA1 88-578, looked up)
chain: B1 chain with R213S
notes: residue numbers count on the immature protein A2XDA1.2 including the transit peptide; Same construct as m1 apart from the mutation; about 70% in the FAD holo form, like the wild type; also called mutant enzyme Arg300Ser; source: E. coli, purified

Biological target: the molecule itself
Test: SEC; gel permeation chromatography (GPC) of the purified protein on a Superose 6 10/300 GL column, elution monitored at 280 nm, carried out as in ref. 6

Protein	binding result
B1	binds
B2	binds
